Test results taken from IntAct's records for PubMed 22056771.

Target: T1, atg7_yeast ATG7 (UniProt P38862)
T1 sequence: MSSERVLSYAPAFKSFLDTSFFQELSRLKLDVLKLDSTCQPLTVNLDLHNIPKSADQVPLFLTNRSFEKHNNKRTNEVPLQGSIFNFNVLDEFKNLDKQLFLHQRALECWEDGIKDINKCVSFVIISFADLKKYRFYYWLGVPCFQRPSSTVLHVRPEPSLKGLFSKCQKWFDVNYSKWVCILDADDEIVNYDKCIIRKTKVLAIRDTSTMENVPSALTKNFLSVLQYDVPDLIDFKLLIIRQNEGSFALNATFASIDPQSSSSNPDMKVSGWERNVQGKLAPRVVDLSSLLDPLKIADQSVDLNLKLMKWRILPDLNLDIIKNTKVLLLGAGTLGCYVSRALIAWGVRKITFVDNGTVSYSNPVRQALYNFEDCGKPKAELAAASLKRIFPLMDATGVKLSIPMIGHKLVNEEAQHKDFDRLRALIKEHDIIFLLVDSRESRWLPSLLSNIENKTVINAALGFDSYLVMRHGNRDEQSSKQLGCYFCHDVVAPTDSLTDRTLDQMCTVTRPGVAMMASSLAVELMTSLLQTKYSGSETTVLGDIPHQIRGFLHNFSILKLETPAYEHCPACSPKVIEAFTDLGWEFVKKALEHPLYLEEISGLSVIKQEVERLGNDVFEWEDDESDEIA

## Microtubule-associated protein 1 light chain 3 beta (Homo sapiens) (from UniProt Q9GZQ8) K65Y
  effect of a mutation on the interaction: increasing interaction
